We go through three sequences from PMC4288183.

Data set [1] deals with T1, MNV RdRp (NS7) WT (Murine norovirus 1 strain CW1) (UniProt Q80J95).
T1 sequence: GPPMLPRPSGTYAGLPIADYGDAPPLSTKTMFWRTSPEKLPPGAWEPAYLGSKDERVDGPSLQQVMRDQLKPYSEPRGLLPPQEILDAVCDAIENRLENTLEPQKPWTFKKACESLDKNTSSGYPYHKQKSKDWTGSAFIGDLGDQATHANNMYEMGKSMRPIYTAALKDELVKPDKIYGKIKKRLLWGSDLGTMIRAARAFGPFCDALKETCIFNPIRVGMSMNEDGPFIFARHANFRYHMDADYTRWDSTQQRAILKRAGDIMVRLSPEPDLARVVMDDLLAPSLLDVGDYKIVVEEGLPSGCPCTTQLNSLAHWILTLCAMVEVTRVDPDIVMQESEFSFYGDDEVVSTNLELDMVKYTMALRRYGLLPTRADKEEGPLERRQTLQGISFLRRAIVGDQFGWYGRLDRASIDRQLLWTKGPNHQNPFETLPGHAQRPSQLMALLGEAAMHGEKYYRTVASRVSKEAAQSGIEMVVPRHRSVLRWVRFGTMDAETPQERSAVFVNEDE
Briefly: fluorescence polarization competition. The following applies: FP: 10 mM Tris-HCl pH 8.0, 30 mM NaCl, 1% glycerol, 0.5 mM 2-mercaptoethanol, 0.1 uM fMps, temperature not stated; synthesis competition: 20 mM Na glutamate pH …. In general terms: Fluorescence polarisation rises when a labelled molecule tumbles more slowly, as on binding a larger partner.

In data set [2] the target is T1, MNV RdRp (NS7) WT (Murine norovirus 1 strain CW1). As to the kind of experiment: fluorescence polarization. The following applies: FP: 10 mM Tris-HCl pH 8.0, 30 mM NaCl, 1% glycerol, 0.5 mM 2-mercaptoethanol, 0.1 uM fMps, temperature not stated; synthesis competition: 20 mM Na glutamate pH ….

What is called IC50 is the midpoint of a concentration-inhibition curve. Read a low IC50 as greater potency. A word on the Ki: it is a measure of affinity in units of concentration, obtained from inhibition or displacement. A high value points to lower affinity. For the sequence “CUGCUGAGCGUUCCUGCGGGGUCUCAGCAU [Mhp (hairpin of Mps; also printed Mph)]”, in data set [1], the IC50 was 16200 nM and the Ki was 6300 nM.

By Kd is commonly meant the free concentration of one partner at which half of the binding sites on the other are occupied at equilibrium, for simple one-to-one binding. Read a low Kd as higher affinity. On to “GCGUCAUUCACAAAGACUGCUGAGCGUUCCUGCGGGGUCUCAGCAUCCAUU [fMps (6-FAM MNV subgenomic proscript)]”, for which, in data set [2], the dissociation constant Kd was 500 nM.

Turning to “GCGUCAUUCACAAAGACUGCUGAGCGUUCCUGCGGGGUCUCAGCAUCCAUU [Mps (MNV subgenomic proscript)]”, in data set [1], the IC50 was determined as 2360 nM and the Ki was determined as 680 nM.
